Reference: US20170137466A1 (UNIVERSITY OF SOUTHAMPTON, published 2017)

Molecular target: T1, HLA-Cw*0102
T1 construct: whole, on cells; MHC class I molecule on cells, as the partner that takes up the peptide; also called cell surface MHC class I of L721.174 cells
Test: MHC class I stabilisation on L721.174 cells with increasing peptide, flow cytometry
Description: Cells were stained for cell surface of MHC class I and analysed by flow cytometry. The mean fluorescence intensity of cell surface MHC Class I was plotted against the peptide concentration.
3×10⁵ cells were used per condition. Following washing in PBS the cells were stained for cell surface of MHC class I and analysed by flow cytometry. The mean fluorescence intensity of cell surface MHC Class I was plotted against the peptide concentration.

LNPSVAATL [peptide LNPSVAATL (SEQ ID NO: 1)]
binding result: binds
